US20210101970A1

How the values were obtained:
mouse CXCR5 (mouse) = mouse CXCR5 (mouse) (UniProt Q04683); experiment: FACS on cells expressing the CXCR5 construct
human CXCR5 (human) [1] = molecular target: human CXCR5 (human) (UniProt P32302); experiment: FACS on cells expressing the CXCR5 construct
human CXCR5 (human) [2] = molecular target: human CXCR5 (human) (UniProt P32302); experiment: cell-based or functional assay

Sequence of human CXCR5 (human) (P32302 whole entry): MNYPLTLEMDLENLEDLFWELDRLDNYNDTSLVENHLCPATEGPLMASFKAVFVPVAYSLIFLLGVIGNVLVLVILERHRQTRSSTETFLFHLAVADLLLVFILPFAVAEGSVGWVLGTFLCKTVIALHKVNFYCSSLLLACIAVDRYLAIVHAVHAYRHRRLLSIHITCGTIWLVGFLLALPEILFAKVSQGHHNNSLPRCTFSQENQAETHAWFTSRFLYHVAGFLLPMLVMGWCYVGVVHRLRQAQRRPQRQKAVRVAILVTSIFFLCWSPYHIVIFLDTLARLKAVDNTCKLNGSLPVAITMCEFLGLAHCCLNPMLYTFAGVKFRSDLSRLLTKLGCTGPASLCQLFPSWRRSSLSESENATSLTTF
Sequence of mouse CXCR5 (mouse) (Q04683 whole entry): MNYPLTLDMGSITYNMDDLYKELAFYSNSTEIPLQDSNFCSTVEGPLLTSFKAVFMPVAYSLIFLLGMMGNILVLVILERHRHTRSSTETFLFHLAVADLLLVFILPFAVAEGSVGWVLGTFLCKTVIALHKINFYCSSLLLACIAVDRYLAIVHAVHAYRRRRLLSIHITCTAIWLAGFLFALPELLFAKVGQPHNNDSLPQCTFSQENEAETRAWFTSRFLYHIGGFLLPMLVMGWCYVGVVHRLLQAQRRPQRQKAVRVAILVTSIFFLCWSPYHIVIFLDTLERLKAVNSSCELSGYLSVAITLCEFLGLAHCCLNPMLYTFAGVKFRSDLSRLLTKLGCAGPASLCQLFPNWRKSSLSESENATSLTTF

GMFI (mouse CXCR5 (mouse))	GMFI (human CXCR5 (human) [1])	IC80, inhibition of forskolin-triggered cAMP production (human CXCR5 (human) [2])	Substance
1040 GMFI	18600 GMFI	–	rabbit anti-human CXCR5 (catalog ab46218, Abcam) (antibody)
12500 GMFI	2460 GMFI	–	rat anti-mouse CXCR5 (catalog MAB6198, R&D systems) (antibody)
–	–	0.6 nM	recombinant hCXCL13 (from UniProt O43927 23-109) (ligand)
